Source: US20030064396A1 (published 2003)

How the values were obtained:
[1] = target: human AR fragment coding for the amino acids 325 to 919 (AR2) (human) (UniProt P10275); experiment: cell-based or functional assay
[2] = target: T1, human androgen receptor, complete (expression vector pSG5AR) (human, UniProt P10275 1-920, 35S-methionine-labeled in the pull-down of Example 4 (in vitro translated, T7 TNT reticulocyte lysate)); experiment: mammal hybrid test, VP16 fusion, luciferase reporter in PC3 cells
T1 construct: mature; also called complete AR; 35S-methionine-labeled androgen receptor
T1 sequence (looked up): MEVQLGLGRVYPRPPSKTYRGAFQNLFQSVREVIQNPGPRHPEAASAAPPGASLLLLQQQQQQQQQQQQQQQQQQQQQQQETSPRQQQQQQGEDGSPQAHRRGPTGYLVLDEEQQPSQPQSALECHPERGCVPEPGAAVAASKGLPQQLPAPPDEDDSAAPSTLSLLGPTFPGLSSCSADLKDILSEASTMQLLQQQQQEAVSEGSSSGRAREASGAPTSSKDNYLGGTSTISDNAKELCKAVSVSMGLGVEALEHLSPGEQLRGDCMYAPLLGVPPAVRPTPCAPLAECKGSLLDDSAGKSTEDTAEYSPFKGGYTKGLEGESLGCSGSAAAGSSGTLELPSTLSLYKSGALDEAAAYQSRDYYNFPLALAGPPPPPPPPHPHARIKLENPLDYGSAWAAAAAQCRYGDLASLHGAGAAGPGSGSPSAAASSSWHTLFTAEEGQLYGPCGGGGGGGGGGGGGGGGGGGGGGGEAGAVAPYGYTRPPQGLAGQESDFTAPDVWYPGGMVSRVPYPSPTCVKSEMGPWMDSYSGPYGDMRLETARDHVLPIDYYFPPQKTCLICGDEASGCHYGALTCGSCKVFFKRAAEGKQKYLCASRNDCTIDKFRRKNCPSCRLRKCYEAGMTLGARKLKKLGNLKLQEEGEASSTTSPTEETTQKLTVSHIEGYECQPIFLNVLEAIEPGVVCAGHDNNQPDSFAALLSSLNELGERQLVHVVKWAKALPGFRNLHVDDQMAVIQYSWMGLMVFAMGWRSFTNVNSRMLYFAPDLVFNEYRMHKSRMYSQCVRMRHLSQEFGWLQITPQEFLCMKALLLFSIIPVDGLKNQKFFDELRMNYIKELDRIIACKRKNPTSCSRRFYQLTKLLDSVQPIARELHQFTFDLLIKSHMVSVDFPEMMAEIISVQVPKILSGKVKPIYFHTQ

[3] = target: T1, human androgen receptor, complete …; experiment: GST pull-down of 35S-labelled AR; binding ratio against GST-empty, corrected for the protein amounts by Western blot, Exp. 3
Text: (§1) A GST pull-down experiment is characterized by an experimental procedure, which allows binding of an in vitro expressed GST fusion protein to a similar in vitro expressed and radioactively labeled protein, subsequent separation from non-interacting proteins and detection and identification of the bound protein as a measure of the binding.

[4] = target: T1, human androgen receptor, complete …; experiment: GST pull-down of 35S-labelled AR; binding ratio against GST-empty, corrected for the protein amounts by Western blot, Exp. 1
Text: as §1

[5] = target: T1, human androgen receptor, complete …; experiment: GST pull-down of 35S-labelled AR; binding ratio against GST-empty, corrected for the protein amounts by Western blot, Exp. 2
Text: as §1

[6] = target: T1, human androgen receptor, complete …; experiment: GST pull-down of 35S-labelled AR; binding ratio against GST-empty, corrected for the protein amounts by Western blot, Exp. 4
Text: as §1

two-hybrid clone with an insert comprising 327 base pairs coding for part of the ORF of KIAA1380 (ARAP3) (from UniProt Q15652 1915-2023)
yeast-2-hybrid screen with and without 10^-6 mol DHT; lacZ-positive clones (β-galactosidase assay) [1]: 40 times

B1: ARAP3 fragment (AS 1430-1539 of Seq. ID No. 20) as fusion protein with VP16 (CMX-VP16-ARAP3-III) (other)
chain: DLLDAMHTLREKYGIKSHCHCTNKQNLQVGNFPTMNGVSQVLQNVLNHSNKISLCMPESQQQNTPPKSEKNGGSSPESDVGTDNKLTPPESQSPLHWLADLAEQKAREEK
notes: Expressed in transfected human PC3 cells; also called ID No. 20; not shown: VP16 fusion partner from the vector CMX-VP16
binding result [2]: binds

B2: GST-ARAP3: ARAP3 fragment (AS 1735 to 1840 of Seq. ID No. 14) as a GST fusion protein (vector pGEX-KG) (other)
chain: LDAMHTLREKYGIKSHCHCTNKQNLQVGNFPTMNGVSQVLQNVLNHSNKISLCMPESQQQNTPPKSEKNGGSSPESDVGTDNKLTPPESQSPLHWLADLAEQKARE
notes: also called ARAP3 fusion protein; GST-ARAP3 spherical particles; not shown: glutathione S-transferase (GST) tag of the vector pGEX-KG (Pharmacia)
Ratio GST-ARAP3/GST-empty [3]: > 100 Ratio | Ratio GST-ARAP3/GST-empty [4]: 26.5 Ratio | Ratio GST-ARAP3/GST-empty [5]: 1120 Ratio | Ratio GST-ARAP3/GST-empty [6]: > 100 Ratio
